Reference: patent US20250282880A1 (NUMAB THERAPEUTICS, published 2025)

Columns and labels:
IL-4R on HEK-Blue cells = IL-4R on HEK-Blue cells (human, UniProt P24394 26-825); test: cell-based or functional assay
Biotinylated IL-4R [1] = target: T1, Biotinylated IL-4R (human, UniProt P24394 26-232, limits assumed, biotinylated); test: competitive ELISA: human IL-4 coated on the plate, biotinylated IL-4R preincubated with the antagonist, bound IL-4R detected with streptavidin-HRP; blocked ligand human IL-4
T1 construct: also called human IL-4R; hIL-4R

Biotinylated IL-4R [2] = target: T1, Biotinylated IL-4R; test: competitive ELISA: IL-4 coated, biotinylated IL-4R preincubated with antibody (plate of PRO1898)
Biotinylated IL-4R [3] = target: T1, Biotinylated IL-4R; test: competitive ELISA: human IL-4 coated on the plate, biotinylated IL-4R preincubated with the antagonist, bound IL-4R detected with streptavidin-HRP; blocked ligand human IL-4; remark: listed apart in the source
Biotinylated IL-4R [4] = target: T1, Biotinylated IL-4R; test: as above; remark: listed apart in the source
Biotinylated IL-4R [5] = target: T1, Biotinylated IL-4R; test: as above; remark: listed apart in the source
Biotinylated IL-4R [6] = target: T1, Biotinylated IL-4R; test: competitive ELISA: IL-4 coated, biotinylated IL-4R preincubated with antibody (plate of PRO1899)
Biotinylated IL-4R [7] = target: T1, Biotinylated IL-4R; test: competitive ELISA: human IL-4 coated on the plate, biotinylated IL-4R preincubated with the antagonist, bound IL-4R detected with streptavidin-HRP; blocked ligand human IL-4 [continued) E]

B1: dupilumab (antibody, V domains shown)
VH: EVQLVESGGGLEQPGGSLRLSCAGSGFTFRDYAMTWVRQAPGKGLEWVSSISGSGGNTYYADSVKGRFTISRDNSKNTLYLQMNSLRAEDTAVYYCAKDRLSITIRPRYYGLDVWGQGTTVTVSS
VL: DIVMTQSPLSLPVTPGEPASISCRSSQSLLYSIGYNYLDWYLQKSGQSPQLLIYLGSNRASGVPDRFSGSGSGTDFTLKISRVEAEDVGFYYCMQALQTPYTFGQGTKLEIKR
For B1, the “IC50, neutralization of hIL-4 induced signaling in reporter gene assay” value (IL-4R on HEK-Blue cells) was 1.15 ng/mL, the “IC50, neutralization of hIL-13 induced signaling in reporter gene assay” value (IL-4R on HEK-Blue cells) was 1 ng/mL and the “rel. IC50 (IC50, dupilumab/IC50, test sample), hIL-4 induced signaling” value (IL-4R on HEK-Blue cells) was 1 ratio. For the same binder, the “rel. IC50 (IC50, dupilumab/IC50, test sample), hIL-13 induced signaling” value (IL-4R on HEK-Blue cells) was 1 ratio, the “IC50 (read off the curve)” value (Biotinylated IL-4R [1]) was roughly 2 ng/mL and the IC50 (Biotinylated IL-4R [2]) was 6.78 ng/mL. The “rel. IC50 (IC50, dupilumab/IC50, test sample)” value (Biotinylated IL-4R [2]) was 1 ratio, the “IC50 (read off the curve)” value (Biotinylated IL-4R [3]) was roughly 2 ng/mL and the “IC50 (read off the curve)” value (Biotinylated IL-4R [4]) was roughly 3 ng/mL. For the same binder, the “IC50 (read off the curve)” value (Biotinylated IL-4R [5]) was roughly 2 ng/mL, the IC50 (Biotinylated IL-4R [6]) was 6.18 ng/mL and the “rel. IC50 (IC50, dupilumab/IC50, test sample)” value (Biotinylated IL-4R [6]) was 1 ratio. For the same binder, the “IC50 (read off the curve)” value (Biotinylated IL-4R [7]) was roughly 2 ng/mL.
